Where no end group is shown, it is not given here.

The record followed here is US20190382462A1 (published 2019).

For the assay, the target named is HRP-conjugated protein-A (UniProt P38507 37-477, HRP conjugate). Briefly: ELISA: HRP-protein A added to immobilized biotinylated CRF in the absence of CRFBP-Fc. The source says: Biotinylated CRF was immobilized on an avidin-coated ELISA plate. […] OD=optical density.
On the technique in general: An ELISA detects its analyte on a solid surface through an enzyme-linked reagent.

B1: Biotinylated CRF (corticotropin-releasing factor) (peptide, UniProt P06850 154-194, looked up)
peptide: SEEPPISLDLTFHLLREVLEMARAEQLAQQAHSNRKLMEII
modifications: ends and bridges not checked; also: biotinylated, site not given here
notes: Immobilized on an avidin-coated ELISA plate; also called corticotropin-releasing hormone; CRH
As to B1, the binding result is given as “no binding”.
